{
  "source": "paper doi:10.1101/2020.12.29.424682",
  "target": "SARS-CoV-2 Spike protein S1 (SARS-CoV-2) (UniProt P0DTC2)",
  "experiment": "BLI",
  "data": [
    {"substance": "peptide … (sequence 24-42 of the ACE2 α1 domain)", "values": [
      {"measurement": "IC50", "value": 700, "unit": "nM"},
      {"measurement": "peptide concentration of half effect on koff of the S1-ACE2 complex", "value": 0.6, "unit": "µM"}
    ]}
  ]
}
